These results are taken from patent publication US20120128663A1.

Sequence of FcRn (human) (P55899 24-297, chain 1 of 2): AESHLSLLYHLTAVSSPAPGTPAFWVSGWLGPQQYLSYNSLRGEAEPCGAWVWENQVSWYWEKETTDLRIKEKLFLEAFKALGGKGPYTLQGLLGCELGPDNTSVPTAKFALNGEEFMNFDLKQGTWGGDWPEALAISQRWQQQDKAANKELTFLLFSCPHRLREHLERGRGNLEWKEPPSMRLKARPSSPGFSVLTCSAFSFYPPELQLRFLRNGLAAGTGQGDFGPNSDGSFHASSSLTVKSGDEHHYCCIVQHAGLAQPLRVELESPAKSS
Sequence of FcRn (human) (P61769 21-119, chain 2 of 2, further chain): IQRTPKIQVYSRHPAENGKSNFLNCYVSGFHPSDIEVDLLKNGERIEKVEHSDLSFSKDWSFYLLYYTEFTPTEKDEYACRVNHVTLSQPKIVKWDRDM

The assay concerns the target FcRn (human) (UniProt P55899). The assay is described as follows: Biacore; pH 6.0. (In SPR one partner is held on a chip, and binding of the other changes the refractive index at the surface.)
As to IgG1 N434S, the Ka amounted to 1.71e+06 M⁻¹ and the Kd is 0.583 µM.
Consider IgG1 Y436V, for which the Ka stood at 1.46e+06 M⁻¹ and the Kd was 0.683 µM.
Take IgG1 Y436W: the Ka worked out at 1.42e+06 M⁻¹ and the Kd was found to be 0.706 µM.
As for IgG1/2 M428L/N434S, the Ka worked out at 5.92e+06 M⁻¹, the Kd was found to be 0.169 µM and the koff was 0.0416 s⁻¹.
IgG1/2 N434S/A378G had a koff of 0.179 s⁻¹.
In the case of IgG1/2 N434S/A378S, the koff amounted to 0.0902 s⁻¹.
With IgG1/2 N434S/D249G, the koff was found to be 0.142 s⁻¹.
Same read-out and setting: the value for IgG1/2 N434S/D312K was 0.221 s⁻¹; that for IgG1/2 N434S/D312R was 0.231 s⁻¹; that for IgG1/2 N434S/D312Y was 0.163 s⁻¹.
Still for that read-out and setting: the value for IgG1/2 N434S/H285D was 0.117 s⁻¹; that for IgG1/2 N434S/H433G was 0.121 s⁻¹.
On to IgG1/2 N434S/I253M, for which the koff worked out at 0.818 s⁻¹.
The substance IgG1/2 N434S/I253V registered a koff of 0.98 s⁻¹.
The substance IgG1/2 N434S/K248Y yielded a koff of 0.176 s⁻¹.
For the substance IgG1/2 N434S/K288F, the koff came to 0.158 s⁻¹.
In the case of IgG1/2 N434S/K288H, the koff is 0.121 s⁻¹.
The substance IgG1/2 N434S/K288I registered a koff of 0.17 s⁻¹.
Consider IgG1/2 N434S/K288L, for which the koff came out at 0.164 s⁻¹.
Substance IgG1/2 N434S/K288N came in with a koff of 0.147 s⁻¹.
For the substance IgG1/2 N434S/K288Q, the koff is 0.162 s⁻¹.
The same measure, in the same setting: the value for IgG1/2 N434S/K288W was 0.154 s⁻¹; that for IgG1/2 N434S/K288Y was 0.162 s⁻¹.
IgG1/2 N434S/K338H gave a koff of 0.142 s⁻¹.
Still for that read-out and setting: as for IgG1/2 N434S/K338R, the figure is 0.141 s⁻¹; as for IgG1/2 N434S/M428I, 0.117 s⁻¹; as for IgG1/2 N434S/M428V, 0.153 s⁻¹.
Substance IgG1/2 N434S/N286D had a Ka of 2.36e+06 M⁻¹, a Kd of 0.423 µM and a koff of 0.0991 s⁻¹.
In turn, IgG1/2 N434S/N286F returned a koff of 0.12 s⁻¹.
In the case of IgG1/2 N434S/N286G, the koff was found to be 0.124 s⁻¹.
On the same count and under the same terms, as for IgG1/2 N434S/N286H, the figure is 0.149 s⁻¹; as for IgG1/2 N434S/N286I, 0.148 s⁻¹.
IgG1/2 N434S/N286K came in with a koff of 0.272 s⁻¹.
In turn, IgG1/2 N434S/N286L yielded a Ka of 2.69e+06 M⁻¹, a Kd of 0.372 µM and a koff of 0.094 s⁻¹.
The substance IgG1/2 N434S/N286P showed a koff of 0.122 s⁻¹.
Substance IgG1/2 N434S/N286R gave a Ka of 2.5e+06 M⁻¹, a Kd of 0.4 µM and a koff of 0.0988 s⁻¹.
Turning to IgG1/2 N434S/N286V, the koff stood at 0.143 s⁻¹.
Regarding IgG1/2 N434S/N286Y, the koff is 0.103 s⁻¹.
For the substance IgG1/2 N434S/Q438D, the koff worked out at 0.104 s⁻¹.
Same read-out and setting: as for IgG1/2 N434S/Q438F, the figure is 0.122 s⁻¹; as for IgG1/2 N434S/Q438G, 0.146 s⁻¹.
With IgG1/2 N434S/Q438H, the koff is 0.164 s⁻¹.
Substance IgG1/2 N434S/Q438I displayed a koff of 0.104 s⁻¹.
IgG1/2 N434S/Q438N showed a koff of 0.113 s⁻¹.
As to IgG1/2 N434S/Q438S, the koff amounted to 0.106 s⁻¹.
IgG1/2 N434S/Q438W: the koff was determined as 0.119 s⁻¹.
Take IgG1/2 N434S/Q438Y: the koff was found to be 0.139 s⁻¹.
On the same count and under the same terms, the value for IgG1/2 N434S/R255E was 0.213 s⁻¹.
For the substance IgG1/2 N434S/R255F, the koff turned out to be 0.136 s⁻¹.
Take IgG1/2 N434S/R255G: the koff turned out to be 0.189 s⁻¹.
Same read-out and setting: as for IgG1/2 N434S/R255H, the figure is 0.189 s⁻¹.
The substance IgG1/2 N434S/R255I yielded a Ka of 2.57e+06 M⁻¹, a Kd of 0.39 µM and a koff of 0.0943 s⁻¹.
Consider IgG1/2 N434S/R255L, for which the koff amounted to 0.107 s⁻¹.
In turn, IgG1/2 N434S/R255P showed a koff of 0.0965 s⁻¹.
IgG1/2 N434S/R255Q displayed a koff of 0.186 s⁻¹.
As to IgG1/2 N434S/R255S, the koff is 0.169 s⁻¹.
The substance IgG1/2 N434S/R255W showed a koff of 0.107 s⁻¹.
The substance IgG1/2 N434S/S426F yielded a koff of 0.285 s⁻¹.
Substance IgG1/2 N434S/S426H displayed a koff of 0.134 s⁻¹.
IgG1/2 N434S/S426I had a Ka of 2.23e+06 M⁻¹, a Kd of 0.448 µM and a koff of 0.0867 s⁻¹.
With IgG1/2 N434S/S426L, the koff turned out to be 0.173 s⁻¹.
Regarding IgG1/2 N434S/S426M, the koff came to 0.149 s⁻¹.
On to IgG1/2 N434S/S426W, for which the koff was 0.275 s⁻¹.
For the substance IgG1/2 N434S/S426Y, the koff was found to be 0.22 s⁻¹.
As for IgG1/2 N434S/T307D, the koff came to 0.0749 s⁻¹.
Take IgG1/2 N434S/T307E: the off-rate constant (koff) is 0.0702 s⁻¹.
Same read-out and setting: the value for IgG1/2 N434S/T307F was 0.087 s⁻¹.
The same measure, in the same setting: the value for IgG1/2 N434S/T307G was 0.0818 s⁻¹; that for IgG1/2 N434S/T307H was 0.107 s⁻¹; that for IgG1/2 N434S/T307I was 0.111 s⁻¹.
IgG1/2 N434S/T307K: the koff turned out to be 0.211 s⁻¹.
Same read-out and setting: as for IgG1/2 N434S/T307L, the figure is 0.137 s⁻¹; as for IgG1/2 N434S/T307M, 0.0653 s⁻¹; as for IgG1/2 N434S/T307N, 0.125 s⁻¹.
Substance IgG1/2 N434S/T307P displayed a koff of 0.0702 s⁻¹.
IgG1/2 N434S/T307R yielded a koff of 0.193 s⁻¹.
Turning to IgG1/2 N434S/T307V, the koff is 0.092 s⁻¹.
Turning to IgG1/2 N434S/T307W, the koff was 0.0627 s⁻¹.
Regarding IgG1/2 N434S/T307Y, the koff came to 0.0847 s⁻¹.
Turning to IgG1/2 N434S/V284D, the koff amounted to 0.116 s⁻¹.
Regarding IgG1/2 N434S/V284E, the Ka was 2.75e+06 M⁻¹, the Kd worked out at 0.363 µM and the koff was 0.0981 s⁻¹.
In the case of IgG1/2 N434S/V309D, the koff was determined as 0.359 s⁻¹.
Substance IgG1/2 N434S/V309E had a koff of 0.138 s⁻¹.
In the case of IgG1/2 N434S/V309F, the koff was 0.168 s⁻¹.
With IgG1/2 N434S/V309H, the koff was determined as 0.364 s⁻¹.
IgG1/2 N434S/V309I showed a koff of 0.13 s⁻¹.
IgG1/2 N434S/V309K came in with an off-rate (koff) of 0.617 s⁻¹.
IgG1/2 N434S/V309L: the koff is 0.137 s⁻¹.
IgG1/2 N434S/V309P: the koff amounted to 0.16 s⁻¹.
With IgG1/2 N434S/V309Q, the koff was determined as 0.227 s⁻¹.
Still for that read-out and setting: the value for IgG1/2 N434S/V309R was 0.329 s⁻¹.
IgG1/2 N434S/V309W showed a Ka of 3.07e+06 M⁻¹, a Kd of 0.326 µM and a koff of 0.0832 s⁻¹.
Take IgG1/2 N434S/V309Y: the koff worked out at 0.129 s⁻¹.
On the same count and under the same terms, the value for IgG1/2 N434S/Y436F was 0.118 s⁻¹.
In the case of IgG1/2 N434S/Y436H, the Ka was found to be 532000 M⁻¹ and the Kd turned out to be 1.88 µM.
Turning to IgG1/2 N434S/Y436I, the Ka stood at 5.14e+06 M⁻¹ and the Kd was 0.194 µM.
On to IgG1/2 N434S/Y436K, for which the Ka worked out at 723000 M⁻¹ and the Kd worked out at 1.38 µM.
The substance IgG1/2 N434S/Y436L gave a Ka of 1.65e+06 M⁻¹ and a Kd of 0.605 µM.
Substance IgG1/2 N434S/Y436V returned a Ka of 3.56e+06 M⁻¹ and a Kd of 0.281 µM.
In the same order, the values of IgG1/2 N434S/Y436W are 2.91e+06 M⁻¹ and 0.344 µM.
Consider IgG1/2 Q311L/N434S, for which the Ka was determined as 4.34e+06 M⁻¹ and the Kd is 0.231 µM.
As for IgG1/2 Q311M/N434S, the Ka was 4.64e+06 M⁻¹ and the Kd came to 0.215 µM.
Substance IgG1/2 Q311V/N434S displayed a Ka of 5.77e+06 M⁻¹ and a Kd of 0.173 µM.
Substance IgG1/2 WT yielded a Ka of 131000 M⁻¹ and a Kd of 7.66 µM.
For the substance IgG1/2 Y436I, the Ka came to 1.43e+06 M⁻¹ and the Kd is 0.699 µM.
In turn, IgG1/2 Y436W showed a Ka of 3.15e+06 M⁻¹ and a Kd of 0.317 µM.
In the case of IgG1/2_WT, the Kd is 1.18 µM.

By Kd is commonly meant the equilibrium constant for the complex coming apart. By koff is commonly meant the first-order rate constant of dissociation. A higher koff goes with a short-lived complex.
